From publication PMC7102968, “The complex formed between a synthetic RNA aptamer and the transcription repressor TetR is a structural and functional twin of the operator DNA–TetR regulator complex” come the findings set out here.

In general, Kd refers to the constant that tells how readily two partners part at equilibrium.

Some results are limits rather than exact numbers.

Series [1] deals with T1, TetR-Q38A (UniProt P04483 1-187+P0ACT4:188-208, Q38A;C68S;C88N;C121T;C144S;internal_change). Put plainly: EMSA; 10 mM Mg2+, 25 ug/ml yeast tRNA; exact Kd not determinable, weak binding detected; ITC: 20 mM potassium phosphate pH 7.4, 50 mM NaCl, 25 C; EMSA: 50 mM Tris-HCl pH 8.0, 10 mM MgCl2, 25 mM NaCl, 25 ug/ml yeast tRNA, room temperature; SEC buffer not given (preparative complex: 20 mM Tris-HCl pH 8.0, 150 mM NaCl, 5 mM MgCl2). The following applies: protein: recombinant, chain copies: 2, label: 5'-32P in EMSA, none in ITC, crystal, hairpin, L-shaped, 43 nt, stems P1 and P2.

Series [2] concerns the target T2, TetR-R28A (UniProt P04483 1-187+P0ACT4:188-208, R28A;C68S;C88N;C121T;C144S;internal_change). Put plainly: EMSA; 10 mM Mg2+, up to 1000 nM TetR; ITC: 20 mM potassium phosphate pH 7.4, 50 mM NaCl, 25 C; EMSA: 50 mM Tris-HCl pH 8.0, 10 mM MgCl2, 25 mM NaCl, 25 ug/ml yeast tRNA, room temperature; SEC buffer not given (preparative complex: 20 mM Tris-HCl pH 8.0, 150 mM NaCl, 5 mM MgCl2). The following applies: protein: recombinant, chain copies: 2, label: 5'-32P in EMSA, none in ITC, crystal, hairpin, L-shaped, 43 nt, stems P1 and P2. Background: A gel shift assay detects complexes by their altered migration in electrophoresis.

Series [3] concerns the target T3, TetR(BD') (UniProt P04483 1-187+P0ACT4:188-208, C68S;C88N;C121T;C144S;internal_change). Put plainly: EMSA; 10 mM Mg2+, 25 ug/ml yeast tRNA; ITC: 20 mM potassium phosphate pH 7.4, 50 mM NaCl, 25 C; EMSA: 50 mM Tris-HCl pH 8.0, 10 mM MgCl2, 25 mM NaCl, 25 ug/ml yeast tRNA, room temperature; SEC buffer not given (preparative complex: 20 mM Tris-HCl pH 8.0, 150 mM NaCl, 5 mM MgCl2). The following applies: protein: recombinant, chain copies: 2, label: 5'-32P in EMSA, none in ITC, crystal, hairpin, L-shaped, 43 nt, stems P1 and P2.

The target of series [4] is T1, TetR-Q38A. In words: ITC; n=1.10; ITC: 20 mM potassium phosphate pH 7.4, 50 mM NaCl, 25 C; EMSA: 50 mM Tris-HCl pH 8.0, 10 mM MgCl2, 25 mM NaCl, 25 ug/ml yeast tRNA, room temperature; SEC buffer not given (preparative complex: 20 mM Tris-HCl pH 8.0, 150 mM NaCl, 5 mM MgCl2). To be noted: protein: recombinant, chain copies: 2, label: 5'-32P in EMSA, none in ITC, crystal, hairpin, L-shaped, 43 nt, stems P1 and P2. In general terms: In ITC the heat of successive injections is recorded.

Series [5] has as its target T3, TetR(BD'). Put plainly: ITC; n=0.96 (TetR dimer per aptamer); ITC: 20 mM potassium phosphate pH 7.4, 50 mM NaCl, 25 C; EMSA: 50 mM Tris-HCl pH 8.0, 10 mM MgCl2, 25 mM NaCl, 25 ug/ml yeast tRNA, room temperature; SEC buffer not given (preparative complex: 20 mM Tris-HCl pH 8.0, 150 mM NaCl, 5 mM MgCl2). The following applies: protein: recombinant, chain copies: 2, label: 5'-32P in EMSA, none in ITC, crystal, hairpin, L-shaped, 43 nt, stems P1 and P2.

The target in series [6] is T2, TetR-R28A. Put plainly: SEC; ITC: 20 mM potassium phosphate pH 7.4, 50 mM NaCl, 25 C; EMSA: 50 mM Tris-HCl pH 8.0, 10 mM MgCl2, 25 mM NaCl, 25 ug/ml yeast tRNA, room temperature; SEC buffer not given (preparative complex: 20 mM Tris-HCl pH 8.0, 150 mM NaCl, 5 mM MgCl2). The following applies: protein: recombinant; chain copies: 2; blunt. (In general: In gel filtration, larger molecules generally elute earlier.)

Series [7] addresses T1, TetR-Q38A. Described as above. The following applies: protein: recombinant; chain copies: 2; blunt.
In another series the target is TetR-Y42A (UniProt P04483 1-187+P0ACT4:188-208, Y42A;C68S;C88N;C121T;C144S;internal_change). Described as above. To be noted: protein: recombinant; chain copies: 2; blunt.
Series [8] addresses T3, TetR(BD'). Put plainly: ITC; n=1.17; ITC: 20 mM potassium phosphate pH 7.4, 50 mM NaCl, 25 C; EMSA: 50 mM Tris-HCl pH 8.0, 10 mM MgCl2, 25 mM NaCl, 25 ug/ml yeast tRNA, room temperature; SEC buffer not given (preparative complex: 20 mM Tris-HCl pH 8.0, 150 mM NaCl, 5 mM MgCl2). The following applies: protein: recombinant; chain copies: 2; blunt.
Series [9] deals with T3, TetR(BD'). In words: X-ray crystallography; 2.9 A; ITC: 20 mM potassium phosphate pH 7.4, 50 mM NaCl, 25 C; EMSA: 50 mM Tris-HCl pH 8.0, 10 mM MgCl2, 25 mM NaCl, 25 ug/ml yeast tRNA, room temperature; SEC buffer not given (preparative complex: 20 mM Tris-HCl pH 8.0, 150 mM NaCl, 5 mM MgCl2). To be noted: protein: recombinant; chain copies: 2; hairpin, L-shaped, 39 nt, UUCG loop.

Take GGCCGGAGAAUGUUAUGGCGCGAAAGCGCAGAGAAAACCGGUC (structured_RNA) [TetR-binding aptamer K1]: the dissociation constant Kd is > 500 nM in the series with TetR-Q38A [1], 80 nM with TetR(BD') [3], 26.2 nM in the series with TetR-Q38A [4] and 5.6 nM in the series with TetR(BD') [5]. Further, in the series with TetR-R28A [2], the binding result is recorded as “no binding”.

B1: tetO operator 25 bp (dsDNA)
DNA 1: CGCATTCTATCATTGATAGGATGCG
DNA 2: CGCATCCTATCAATGATAGAATGCG
For the molecule B1, the figures for the binding result with TetR-R28A [6], in the series with TetR-Q38A [7] and with TetR-Y42A were “no binding”, “binds” and “no binding”, respectively. For the same molecule, the dissociation constant Kd in the series with TetR(BD') [8] is 51.1 nM.
With GGCGGAGAAUGUUAUGGCCUUCGGGCAGAGAAAACCGUC (structured_RNA) [TetR-binding aptamer K2], in the series with TetR(BD') [9], the binding result is “binds”.
